From paper PMC4798592 come the findings set out here.

Holding throughout (conditions): EMSA: 20 mM phosphate pH 8.0, 100 mM NaCl, 5% glycerol, with or without TX-100, 0.1 nM 32P-DNA, 20 min on ice, 6% native PAGE
Data set [1] addresses T1, rSarA (Staphylococcus aureus) (UniProt A6QES8).
T1 sequence: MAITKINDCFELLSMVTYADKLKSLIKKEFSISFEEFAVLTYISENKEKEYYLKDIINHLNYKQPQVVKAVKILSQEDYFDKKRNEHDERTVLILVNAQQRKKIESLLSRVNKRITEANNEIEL
The experiment in a line: DNase I footprinting.

Data set [2] concerns C9W (rSarA C9W) (Staphylococcus aureus). The experiment in a line: EMSA.
The test system of data set [3] is rSarA (Staphylococcus aureus). The experiment in a line: EMSA.
Data set [4] relates to rSarA (Staphylococcus aureus). The experiment in a line: EMSA. This is another data set of the same source.
In data set [5] the test system is rSarA (Staphylococcus aureus). The experiment in a line: EMSA. This is another data set of the same source.
In data set [6] the test system is rSarA (Staphylococcus aureus). The experiment in a line: EMSA. The source holds these as a separate data set.
Data set [7] deals with C9W (rSarA C9W) (Staphylococcus aureus). The experiment in a line: EMSA. This is another data set of the same source.
For data set [8] the test system is unchanged. The experiment in a line: EMSA. This is another data set of the same source.
For data set [9] the test system is unchanged. The experiment in a line: EMSA. This is another data set of the same source.

pKd: −log10 of the molar value.

With “CTATTAGATATTTCTATGTAATGGCAAAATTTATTCCCGACGAAATTCCAAACATAATTAATACCCTTTTTCTCTATTTCTATTTATTAATTTACACTAGTTAATATATAGTTAATTTTTATTTAATAGTTAATTAATTGATTTAATTCTAAGATATTTGTATTTTTATATTGTAATCGATTACATTTTTAAATCAAACAAATCATTAGTTTTAAAGAAATTAATCAATAAAATTAGCTATGT (double strand) [hla promoter DNA, bottom strand labelled (footprinting)]”, in [1], the binding entry is recorded as “binds”.

As to hla promoter DNA, the negative logarithm of the Kd (pKd) is 6.40 in [2]; 6.44 in data set [3]; 7.46 in data set [4]; 7.30 in [5]; 7.70 in [6]; 7.01 in data set [7]. Also, the negative-log Kd (pKd) in [8] is 7.24; in data set [9], 7.22.
